# Assays:
# [1] = cited from earlier work
# [2] = system: NOD2-mediated IL-1β and IL-10 production; experiment: Peritoneal immune cells cultured with SB203580 and/or MDP, IL-1β and IL-10 measured in culture; type: cell-based, mice
# Protocol: (§1) Concentrations of IL-1β, IL-6, IL-10, IFN-γ, TNF-α and C5a in serum and peritoneal fluid were measured in CLP-induced sepsis mice. All cytokines were measured using a BD Bioscience ELISA kit according to the manufacturer's instructions. Colorimetric reactions were stopped by adding 3 N HCl, and the optical absorbance at 450 and 570 nm was determined using a spectrophotometer.
# To investigate the mechanism by which NOD2 enhances C5 generation during polymicrobial infection, serum and peritoneal levels of various cytokines in WT and Nod2^−/− mice were estimated after CLP. […] To confirm whether NOD2-mediated signals induce IL-1β and IL-10 production by immune cells, peritoneal cells from WT and Nod2^−/− mice were cultured with MDP, a NOD2 agonist. […] Among immune cells, monocytes, granulocytes, and dendritic cells, but not T or B cells, express NOD 2 (Gutierrez, O. et al. Induction of Nod2 in myelomonocytic and intestinal epithelial cells via nuclear factor-kappa B activation. J Biol Chem 277, 41701-41705 (2002)).
# Upon activation, NOD2 oligomerizes and recruits the nuclear factor (NF)-κB-activating kinase receptor-interacting protein 2 (RIP2) via a homotypic CARD-CARD (caspase recruitment domain) interaction, triggering IκB phosphorylation and NF-κB activation.
# [3] = system: CLP-induced sepsis mice; experiment: Serum and peritoneal cytokine and complement levels (ELISA) in CLP-induced sepsis mice; type: in vivo; conditions: for serum and peritoneal C5a generation: WT or Nod2−/− mice, recombinant cytokine 4 h or 12 h after CLP
# Protocol: (§2) To deplete Gr-1^+cells in vivo, WT B6 or NOD2−/− mice were i.p. injected with anti-Gr-1 mAb (160 μg/injection) (BD Bioscience, Sparks, Md., USA) 2 and 3 days prior to CLP. Recombinant mouse (mr) IL-1β (40 μg/mouse) or IL-10 (30 μg/mouse) (ProSpec-Tany TechnoGene, Rehovot, Israel) was i.p. injected into WT or Nod2^−/− mice 4 or 12 h after CLP, respectively. mrC5a (5 μg/injection) or anti-05a mAb (100 μg/injection) (R&D Systems Inc., Minneapolis, Minn., USA) was i.p. injected into WT or Nod2^−/− mice 4 and 12 h after CLP.
# as §1
# [4] = system: CD55; experiment: CD55 expression on Ly6-G+ peritoneal cells (flow cytometry) after CLP; type: in vivo, mice
# Protocol: as §2
# PLF cells were incubated with antibodies on ice for 30 min in 100 μl of staining buffer (0.5% BSA). FITC-conjugated anti-Ly-6G, phycoerythrin (PE)-conjugated anti-CD4 mAb, PE-conjugated anti-CD8, PE-conjugated anti-MHC class II, FITC-conjugated anti-CD80, FITC-conjugated anti-CD86, FITC-conjugated anti-annexin V mAbs, and 7AAD (7-amino-actinomycin D) were purchased from BD Biosciences. PE Cy5- or Alexa 647 (eBioscience, San Diego, Calif., USA)-conjugated anti-F4/80 mAb was used. Stained cells were then run on an LSR II and FACs caliber (BD Bioscience) and analyzed using Flowjo software (Treestar, Ashland, Oreg., USA).
# [5] = biological target: T1, RIP2 (Mus musculus, UniProt P58801); experiment: Blot of RIP2 phosphorylation in peritoneal immune cells during CLP-induced sepsis; type: in vivo; conditions: WT mice, SB203580 50 μg/mouse i.p.
# T1 construct: reduced phosphorylation of RIP2 and P38 in peritoneal immune cells; endogenous in cells
# T1 sequence (P58801 whole entry): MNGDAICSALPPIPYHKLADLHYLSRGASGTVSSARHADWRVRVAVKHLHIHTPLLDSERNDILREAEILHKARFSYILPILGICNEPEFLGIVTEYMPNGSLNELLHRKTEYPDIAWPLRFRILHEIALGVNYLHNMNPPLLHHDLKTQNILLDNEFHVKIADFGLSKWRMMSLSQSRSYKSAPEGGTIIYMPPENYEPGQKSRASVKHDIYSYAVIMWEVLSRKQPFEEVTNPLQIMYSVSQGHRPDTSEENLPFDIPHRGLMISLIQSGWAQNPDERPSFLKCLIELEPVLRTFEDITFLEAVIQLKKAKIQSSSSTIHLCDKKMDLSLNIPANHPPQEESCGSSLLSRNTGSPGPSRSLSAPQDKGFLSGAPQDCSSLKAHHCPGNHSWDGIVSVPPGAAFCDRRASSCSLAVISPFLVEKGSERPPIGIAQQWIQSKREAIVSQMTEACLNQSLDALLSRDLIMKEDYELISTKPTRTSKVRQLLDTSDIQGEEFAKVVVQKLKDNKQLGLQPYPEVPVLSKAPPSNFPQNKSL
# [6] = system: CLP-induced sepsis; experiment: Survival in CLP-induced sepsis; type: in vivo, mice; conditions: for survival during CLP-induced sepsis: WT mice injected with recombinant protein after CLP
# Protocol: as §2
# Survival data were plotted as Kaplan-Meier survival curves and analyzed using the log-rank test. Statistical significance was analyzed using Prism 5.0 (GraphPad Software Inc, San Diego, Calif., USA). One-way and two-way analyses of variance (ANOVA) and t-tests was performed, and a post hoc test was used if P<0.05. Data are expressed as the mean±standard error of the mean.
# [7] = system: peritoneal cells; experiment: Bacterial phagocytosis by peritoneal immune cells (FITC-labeled E. coli); type: in vivo; conditions: Nod2−/− mice with CLP
# Protocol: Peritoneal fluid cells of WT B6 or Nod2^−/− mice were cultured with FITC-labeled E. coli (Invitrogen, Carlsbad, Calif., USA) for 15 min. Cells attached on the plates were washed with warm PBS three times and then treated with 0.2% trypan blue for 1 min at room temperature. Cells were fixed with 4% formalin for 15 min and cultured with FITC-labeled E. coli. to estimate nonspecific binding of E. coli on the cell surface. These cells, which were cultured with FITC-labeled E. coli, were then run on the FACs caliber machine and analyzed with Flowjo software.
# [8] = system: peritoneal immune cells; experiment: Responsiveness of peritoneal immune cells from CLP mice against LPS (cytokine production LPS vs PBS); type: in vivo; conditions: for LPS-mediated cytokine production by peritoneal immune cells: cells from Nod2−/− mice with CLP
# Protocol: as §2
# (§3) During bacterial septic shock, C5a triggers coagulopathy and neutrophil dysfunction, thereby defective bacterial clearance and cytokine production (Ward, P. A. The dark side of C5a in sepsis. Nat Rev Immunol 4, 133-142 (2004)). Therefore, to estimate C5a effects on immune responses in WT B6 and Nod2^−/− mice during infection, we examined the responsiveness of immune cells against lipopolysaccharide (LPS) and macrophage phagocytic activity, bacteria colony-forming units (CFUs), and levels of serum D-dimer after CLP. To estimate the responsiveness of peritoneal immune cells against LPS, peritoneal cells obtained from B6 or Nod2^−/− mice 24 h after CLP were stimulated with LPS or PBS (FIG. 1C). The responsiveness of peritoneal immune cells against LPS was determined by estimating ratios of individual cytokines produced against LPS versus PBS. Peritoneal immune cells obtained from Nod2^−/− mice 24 h after CLP produced higher IL-1β, IL-6, and TNF-αlevels against LPS than did WT peritoneal cells. The levels of serum D-dimer in Nod2^−/− mice were lower than those in WT mice (FIG. 1D). However, peritoneal cells obtained from Nod2^−/− mice engulfed more FITC-conjugated Escherichia coli than did WT peritoneal cells (FIG. 1E). Consistent with these findings, bacteria CFU levels in the blood and liver homogenates were higher in WT B6 mice than in Nod2^−/− mice (FIG. 1F). Recombinant C5a administration to Nod2^−/− mice with CLP reversed cytokine production by peritoneal immune cells and serum D-dimer levels, but not phagocytosis activity and bacterial CFUs.
# [9] = system: bacteria; experiment: Bacterial CFUs in blood and liver homogenates after CLP; type: in vivo; conditions: Nod2−/− mice with CLP
# Protocol: Bacterial CFUs were determined by plating serial dilutions of blood and liver homogenates onto blood agar plates (Hanil Komed, Seoul, Korea), which were incubated in 5% CO2 at 37° C. overnight. The number of colonies was counted 18 h later.
# [10] = Serum D-dimer levels after CLP; type: in vivo; conditions: Nod2−/− mice with CLP
# Source text: as §3, with “Recombinant C5a administration to Nod2^−/− mice with CLP reversed cytokine production by peritoneal immune cells and serum D-dimer levels, but not phagocytosis activity and bacterial CFUs.” left out
# [11] = 73 patients treated, Critical Care Medicine 2009
# [12] = WT mice, CLP, SB203580 50 μg/mouse i.p.
# [13] = WT mice peritoneal immune cells, SB203580 20 nM, MDP 20 μg/ml, 24 h
# [14] = Nod2−/− mice, polymicrobial infection
# [15] = Nod2−/− mice injected with recombinant protein after CLP
molecule,measurement,setting,value
Drotrecogin alfa [Xigris],fatality,[1]; [11],increased
same,hemorrhage,[1]; [11],severe hemorrhage had occurred
same,severe side effect in clinical trial,[1]; pediatric patients with severe blood infection,cerebral hemorrhage
CC(=O)N[C@@H]1[C@@H](O[C@H](C)C(=O)N[C@@H](C)C(=O)N[C@H](CCC(=O)O)C(N)=O)[C@H](O)[C@@H](CO)O[C@H]1O [MDP],IL-1β production upon MDP treatment,[2]; NOD2-deficient cells,minimally produced
same,IL-10 production upon MDP treatment,[2]; NOD2-deficient cells,minimally produced
same,IL-1β production upon MDP treatment,[2]; WT peritoneal immune cells,produced
same,IL-10 production upon MDP treatment,[2]; WT peritoneal immune cells,produced
"C[S+]([O-])c1ccc(-c2nc(-c3ccncc3)c(-c3ccc(F)cc3)[nH]2)cc1 (centres unmarked) [SB203580, reference compound]",levels of serum and peritoneal C5a during sepsis,[3]; [12],reduced
same,levels of serum and peritoneal IL-1β during sepsis,[3]; [12],reduced
same,levels of serum and peritoneal IL-10 during sepsis,[3]; [12],reduced
same,CD55 expression levels of Ly6-G+ granulocytes,[4]; [12],reduced
same,phosphorylation of RIP2 in peritoneal immune cells,[5],reduced
same,CLP-induced sepsis,"[6]; WT mice injected with SB203580, FIG. 6 legend",attenuates
same,survival rates during CLP-induced sepsis,"[6]; WT mice, SB203580 50 μg/mouse i.p. vs PBS",increased
same,MDP-mediated IL-1β production by peritoneal cells,[2]; [13],decreased
same,MDP-mediated IL-10 production by peritoneal cells,[2]; [13],decreased
"recombinant IL-1β: Recombinant mouse (mr) IL-1β, 40 μg/mouse i.p. (protein, UniProt P10749 118-269, looked up) Interleukin-1 beta: VPIRQLHYRLRDEQQKSLVLSDPYELKALHLNGQNINQQVIFSMSFVQGEPSNDKIPVALGLKGKNLYLSCVMKDGTPTLQLESVDPKQYPKKKMEKRFVFNKIEVKSKVEFESAEFPNWYISTSQAEHKPVFLGNNSGQDIIDFTMESVSS",phagocytosis of bacteria by peritoneal cells,[7],reduced
same,C5a levels during polymicrobial infection,[3]; Il-10−/− mice with CLP,not altered
same,serum and peritoneal IL-10 levels,"[3]; Nod2−/− mice, polymicrobial infection (CLP)",enhanced
same,serum and peritoneal C5a generation,[3],enhanced
same,CD55 expression on F4/80−Ly6-G+ peritoneal cells,[4]; Il-10−/− mice,did not decrease
same,CD55 expression on F4/80−Ly6-G+ peritoneal cells,[4]; [14],decreased
same,LPS-induced cytokine production by peritoneal immune cells,[8]; cells from Il-10−/− mice with CLP,did not alter
same,LPS-mediated cytokine production by peritoneal immune cells,[8],suppressed
same,survival rates during CLP-induced sepsis,[6]; [15],reduced
same,survival during CLP-induced sepsis,[6],did not affect
same,bacterial CFUs in the blood or liver homogenates,[9],reduced
"recombinant C5a: recombinant mouse C5a, i.p. injected 5 μg/injection (protein, UniProt P06684 679-755, looked up, C5a anaphylatoxin, recombinant mouse C5a, i.p. injected 5 μg/injection) C5a anaphylatoxin: NLHLLRQKIEEQAAKYKHSVPKKCCYDGARVNFYETCEERVARVTIGPLCIRAFNECCTIANKIRKESPHKPVQLGR",serum D-dimer levels,[10],reversed
same,LPS-mediated cytokine production by peritoneal immune cells,[8],reversed
same,survival rates during CLP-induced sepsis,[6]; [15],decreased
same,survival during CLP-induced sepsis,[6],did not cause survival changes
same,bacterial CFUs in the blood or liver homogenates,[9],not
"recombinant IL-10: Recombinant mouse IL-10, 30 μg/mouse i.p. (protein, UniProt P18893 19-178, looked up) Interleukin-10: SRGQYSREDNNCTHFPVGQSHMLLELRTAFSQVKTFFQTKDQLDNILLTDSLMQDFKGYLGCQALSEMIQFYLVEVMPQAEKHGPEIKEHLNSLGEKLKTLRMRLRRCHRFLPCENKSKAVEQVKSDFNKLQDQGVYKAMNEFDIFINCIEAYMMIKMKS",serum and peritoneal C5a generation,[3],enhanced
same,CD55 expression on F4/80−Ly6-G+ peritoneal cells,[4]; [14],decreased
same,LPS-mediated cytokine production by peritoneal immune cells,[8],suppressed
same,survival rates during CLP-induced sepsis,[6]; [15],reduced
same,survival during CLP-induced sepsis,[6],did not affect
same,bacterial CFUs in the blood or liver homogenates,[9],not

# Source: patent publication US20130251702A1, “METHOD FOR SCREENING COMPOUNDS FOR TREATING SEPSIS TARGETING NOD2 SIGNALLING PATHWAY AND COMPOSITION FOR TREATING SEPSIS COMPRISING NOD2 SIGNALLING PATHWAY INHIBITORS” (SNU R&DB FOUNDATION, priority 2012, published 2013)
